Data as given in paper PMC2908525 (Molecular cell, 2010).

Target: the molecule itself
Test: single-molecule TIRF microscopy of DNA looping

B1: enhanced green fluorescent protein-MuB fusion (EGFP-MuB) (natural protein, bacteriophage Mu, UniProt P03763 1-312, looked up)
chain: MNISDIRAGLRTLVENEETTFKQIALESGLSTGTISSFINDKYNGDNERVSQMLQRWLEKYHAVAELPEPPRFVETQTVKQIWTSMRFASLTESIAVVCGNPGVGKTEAAREYRRTNNNVWMITITPSCASVLECLTELAFELGMNDAPRRKGPLSRALRRRLEGTQGLVIIDEADHLGAEVLEELRLLQESTRIGLVLMGNHRVYSNMTGGNRTVEFARLFSRIAKRTAINKTKKADVKAIADAWQINGEKELELLQQIAQKPGALRILNHSLRLAAMTAHGKGERVNEDYLRQAFRELDLDVDISTLLRN
Q: Does B1 bind?
A: binds
